System: Spo22p
Assay: qB2H v3 fluorescence, Spo22p vs ECM11
Format: cell-based, Saccharomyces cerevisiae
Conditions: Acella, qB2H v3, cI-Spo22p 786-886, IPTG(200µM) + ATC (200ng/mL)
Procedure: Precultures of untransformed (for intrinsic fluorescence evaluation) and transformed SB39 cells were diluted (3 μl into 300 μl of fresh medium) in 2-ml microtubes and grown in ThermoMixer C (Eppendorf; 37 °C at 900 rpm) for 2 h. Cultures with an OD600 of approximately 0.5 were then mixed with 100 μl of the same medium containing 4× inducer concentration. […] The induced cultures were grown overnight at 18 °C, diluted (1 μl) in freshly filtered (0.22 μm) phosphate-buffered saline buffer (1 ml per OD unit), and analyzed using guava easyCyte HT (488-nm blue laser). The gating for event analysis was set to minimize background noise (fewer than 100 gated events per 10 μl of sterile phosphate-buffered saline). Ten thousand events were collected per culture, and the MFI was recorded. To allow comparison across independent experiments, SB39 cells cotransformed with VN519 (pBRα-rpoA-ip3_mut3A) and VN550 (pAC-cI_E34P-ASF1A_Term_f1-pOL2-62_L-eGFP-KanR) or VN517 (pBRα-rpoA-ip3) and VN550 were included as internal controls. […]
MFI(x) represents the MFI of a given condition or culture. MFI(low) corresponds to the fluorescence produced by SB39 cells cotransformed with VN519 and VN550, indicating no detectable interaction (Kd > 100,000 nM). […]
Interactions involving distinct protein domains and folding variants were assessed using qB2H systems v1, v2, and v3. […]

B1: ECM11: Q04110 1-302, Saccharomyces cerevisiae (protein, UniProt Q04110 1-302, looked up)
Protein ECM11: MTVIKTEPTTEVTLYSPPSKESLSKDDAHRKKQNNKPPSSINSRSGPNKHKLAAKAPEKKINNTDKQDLSAFLLNPSLIVKPSESKKKENIVAYNDTPGIKTEHTAFQPLTPISKKRALKEKAASEKCDSFDLSRDEKPYIQKKSKTLSSVTEINSSEYKLSLNGENTSSPAKEKSQEPIENPGSYQKTRNYLFEKPDPLDTCLQDYSSMLPSNVAEEDQEYFISVADSTLEEWTNKGQEIIDQQFQLYQEIIKKRIELSYKFKGIISVINDRADALEEQGQQLEGKIKKVKTLANEILNII
  Norm. MFI: 7.70%

Source: paper PMC13199644, “Optimized Quantitative Bacterial Two-Hybrid (qB2H) for Protein–Protein Interaction Assessment” (Computational and Structural Biotechnology Journal, 2026)
